Assay results as given in patent publication US20260242735A1 (UNIVERSIT T BASEL, published 2026).

B1: Refmab #6 (antibody, V domains shown)
VH: QVQLQQPGAEVVKPGASVKMSCKASGYTFTSYYIHWIKQTPGQGLEWVGVIYPGNDDISYNQKFQGKATLTADKSSTTAYMQLSSLTSEDSAVYYCAREVRLRYFDVWGQGTTVTVSS
VL: EIVLTQSPGSLAVSPGERVTMSCKSSQSVFFSSSQKNYLAWYQQIPGQSPRLLIYWASTRESGVPDRFTGSGSGTDFTLTISSVQPEDLAIYYCHQYLSSRTFGQGTKLEIK
notes: Full-length format is human IgG1 Fc silent (PG-LALA); also made as Fab; The alanine scan used IgG or Fab
B2: Refmab #6 (antibody, V domains shown)
VH: B1 VH
VL: B1 VL
notes: The alanine scan used IgG or Fab
B3: Refmab #5 (antibody, V domains shown)
VH: QVQLVQSGAEVKKPGASVKVSCKASGYTFTNYDINWVRQAPGQGLEWIGWIYPGDGSTKYNEKFKAKATLTADTSTSTAYMELRSLRSDDTAVYYCASGYEDAMDYWGQGTTVTVSS
VL: DIQMTQSPSSLSASVGDRVTINCKASQDINSYLSWFQQKPGKAPKTLIYRANRLVDGVPSRFSGSGSGQDYTLTISSLQPEDFATYYCLQYDEFPLTFGGGTKVEIK
notes: as for B1
B4: Refmab #5 (antibody, V domains shown)
VH: B3 VH
VL: B3 VL
notes: as for B2

Columns and labels:
Experiment in all cases: alanine scan, flow cytometry, HEK293-T;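 also: antibody binding to each alanine-substituted CD33 mutant expressed transiently in HEK293-T, read as fluorescence minus background, mean of duplicates, relative to wild-type CD33 set as 100%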
[1] = molecular target: human CD33 H57A (human, UniProt P20138 18-364)
[2] = molecular target: human CD33 G64A (human, UniProt P20138 18-364)
[3] = molecular target: human CD33 D70A (human, UniProt P20138 18-364)
[4] = molecular target: human CD33 P72A (human, UniProt P20138 18-364)
[5] = molecular target: human CD33 D79A (human, UniProt P20138 18-364)
[6] = molecular target: human CD33 E85A (human, UniProt P20138 18-364)
[7] = molecular target: human CD33 G88A (human, UniProt P20138 18-364)
[8] = molecular target: human CD33 L92A (human, UniProt P20138 18-364)
[9] = molecular target: human CD33 L93A (human, UniProt P20138 18-364)
[10] = molecular target: human CD33 P46A (human, UniProt P20138 18-364)
[11] = molecular target: human CD33 S102A (human, UniProt P20138 18-364)
[12] = molecular target: human CD33 S104A (human, UniProt P20138 18-364)
[13] = molecular target: human CD33 R110A (human, UniProt P20138 18-364)
[14] = molecular target: human CD33 N113A (human, UniProt P20138 18-364)
[15] = molecular target: human CD33 P48A (human, UniProt P20138 18-364)
[16] = molecular target: T1, human CD33 S128A (human, UniProt P20138 18-364)
T1 construct: alanine scan clone, transfected HEK293-T

[17] = molecular target: T2, human CD33 S131A (human, UniProt P20138 18-364)
T2 construct: alanine scan clone, transfected HEK293-T

[18] = molecular target: T3, human CD33 P132A (human, UniProt P20138 18-364)
T3 construct: alanine scan clone, transfected HEK293-T

[19] = molecular target: T4, human CD33 V136A (human, UniProt P20138 18-364)
T4 construct: alanine scan clone, transfected HEK293-T

[20] = molecular target: T5, human CD33 R144A (human, UniProt P20138 18-364)
T5 construct: alanine scan clone, transfected HEK293-T

[21] = molecular target: T6, human CD33 P145A (human, UniProt P20138 18-364)
T6 construct: alanine scan clone, transfected HEK293-T

[22] = molecular target: T7, human CD33 K146A (human, UniProt P20138 18-364)
T7 construct: alanine scan clone, transfected HEK293-T

[23] = molecular target: T8, human CD33 I147A (human, UniProt P20138 18-364)
T8 construct: alanine scan clone, transfected HEK293-T

[24] = molecular target: T9, human CD33 T152A (human, UniProt P20138 18-364)
T9 construct: alanine scan clone, transfected HEK293-T

[25] = molecular target: T10, human CD33 E154A (human, UniProt P20138 18-364)
T10 construct: alanine scan clone, transfected HEK293-T

[26] = molecular target: T11, human CD33 H157A (human, UniProt P20138 18-364)
T11 construct: alanine scan clone, transfected HEK293-T

[27] = molecular target: T12, human CD33 C163A (human, UniProt P20138 18-364)
T12 construct: alanine scan clone, transfected HEK293-T

[28] = molecular target: T13, human CD33 P174A (human, UniProt P20138 18-364)
T13 construct: alanine scan clone, transfected HEK293-T

[29] = molecular target: T14, human CD33 P175A (human, UniProt P20138 18-364)
T14 construct: alanine scan clone, transfected HEK293-T

[30] = molecular target: T15, human CD33 R122A (human, UniProt P20138 18-364)
T15 construct: alanine scan clone, transfected HEK293-T

[31] = molecular target: T16, human CD33 F177A (human, UniProt P20138 18-364)
T16 construct: alanine scan clone, transfected HEK293-T

[32] = molecular target: T17, human CD33 L180A (human, UniProt P20138 18-364)
T17 construct: alanine scan clone, transfected HEK293-T

[33] = molecular target: T18, human CD33 P184A (human, UniProt P20138 18-364)
T18 construct: alanine scan clone, transfected HEK293-T

[34] = molecular target: T19, human CD33 G123A (human, UniProt P20138 18-364)
T19 construct: alanine scan clone, transfected HEK293-T

[35] = molecular target: T20, human CD33 S186A (human, UniProt P20138 18-364)
T20 construct: alanine scan clone, transfected HEK293-T

[36] = molecular target: T21, human CD33 P189A (human, UniProt P20138 18-364)
T21 construct: alanine scan clone, transfected HEK293-T
T21 sequence (P20138 18-364 P189A limits assumed): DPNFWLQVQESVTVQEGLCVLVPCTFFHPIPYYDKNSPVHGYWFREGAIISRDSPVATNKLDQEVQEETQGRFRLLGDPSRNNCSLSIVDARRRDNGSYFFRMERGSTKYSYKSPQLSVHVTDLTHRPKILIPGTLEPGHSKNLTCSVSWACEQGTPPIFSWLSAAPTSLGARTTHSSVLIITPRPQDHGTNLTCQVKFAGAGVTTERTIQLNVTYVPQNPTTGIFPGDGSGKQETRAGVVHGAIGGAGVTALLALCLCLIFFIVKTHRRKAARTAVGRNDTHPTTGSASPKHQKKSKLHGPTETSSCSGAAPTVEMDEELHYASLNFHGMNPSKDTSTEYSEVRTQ

human CD33 P48A, sequence (P20138 18-364 P48A limits assumed): as the sequence (P20138 18-364 P189A limits assumed) above, with P31A, A172P counted along it
T6 sequence (P20138 18-364 P145A limits assumed): as the sequence (P20138 18-364 P189A limits assumed) above, with P128A, A172P counted along it
T5 sequence (P20138 18-364 R144A limits assumed): as the sequence (P20138 18-364 P189A limits assumed) above, with R127A, A172P counted along it
human CD33 E85A, sequence (P20138 18-364 E85A limits assumed): as the sequence (P20138 18-364 P189A limits assumed) above, with E68A, A172P counted along it
T11 sequence (P20138 18-364 H157A limits assumed): as the sequence (P20138 18-364 P189A limits assumed) above, with H140A, A172P counted along it
T3 sequence (P20138 18-364 P132A limits assumed): as the sequence (P20138 18-364 P189A limits assumed) above, with P115A, A172P counted along it
T19 sequence (P20138 18-364 G123A limits assumed): as the sequence (P20138 18-364 P189A limits assumed) above, with G106A, A172P counted along it
human CD33 G64A, sequence (P20138 18-364 G64A limits assumed): as the sequence (P20138 18-364 P189A limits assumed) above, with G47A, A172P counted along it
human CD33 R110A, sequence (P20138 18-364 R110A limits assumed): as the sequence (P20138 18-364 P189A limits assumed) above, with R93A, A172P counted along it
human CD33 D79A, sequence (P20138 18-364 D79A limits assumed): as the sequence (P20138 18-364 P189A limits assumed) above, with D62A, A172P counted along it
human CD33 L93A, sequence (P20138 18-364 L93A limits assumed): as the sequence (P20138 18-364 P189A limits assumed) above, with L76A, A172P counted along it
human CD33 P72A, sequence (P20138 18-364 P72A limits assumed): as the sequence (P20138 18-364 P189A limits assumed) above, with P55A, A172P counted along it
human CD33 P46A, sequence (P20138 18-364 P46A limits assumed): as the sequence (P20138 18-364 P189A limits assumed) above, with P29A, A172P counted along it
T2 sequence (P20138 18-364 S131A limits assumed): as the sequence (P20138 18-364 P189A limits assumed) above, with S114A, A172P counted along it
T12 sequence (P20138 18-364 C163A limits assumed): as the sequence (P20138 18-364 P189A limits assumed) above, with C146A, A172P counted along it
human CD33 H57A, sequence (P20138 18-364 H57A limits assumed): as the sequence (P20138 18-364 P189A limits assumed) above, with H40A, A172P counted along it
human CD33 S104A, sequence (P20138 18-364 S104A limits assumed): as the sequence (P20138 18-364 P189A limits assumed) above, with S87A, A172P counted along it
T8 sequence (P20138 18-364 I147A limits assumed): as the sequence (P20138 18-364 P189A limits assumed) above, with I130A, A172P counted along it
T15 sequence (P20138 18-364 R122A limits assumed): as the sequence (P20138 18-364 P189A limits assumed) above, with R105A, A172P counted along it
T13 sequence (P20138 18-364 P174A limits assumed): as the sequence (P20138 18-364 P189A limits assumed) above, with P157A, A172P counted along it
T18 sequence (P20138 18-364 P184A limits assumed): as the sequence (P20138 18-364 P189A limits assumed) above, with P167A, A172P counted along it
T16 sequence (P20138 18-364 F177A limits assumed): as the sequence (P20138 18-364 P189A limits assumed) above, with F160A, A172P counted along it
human CD33 S102A, sequence (P20138 18-364 S102A limits assumed): as the sequence (P20138 18-364 P189A limits assumed) above, with S85A, A172P counted along it
human CD33 N113A, sequence (P20138 18-364 N113A limits assumed): as the sequence (P20138 18-364 P189A limits assumed) above, with N96A, A172P counted along it
T7 sequence (P20138 18-364 K146A limits assumed): as the sequence (P20138 18-364 P189A limits assumed) above, with K129A, A172P counted along it
T17 sequence (P20138 18-364 L180A limits assumed): as the sequence (P20138 18-364 P189A limits assumed) above, with L163A, A172P counted along it
T14 sequence (P20138 18-364 P175A limits assumed): as the sequence (P20138 18-364 P189A limits assumed) above, with P158A, A172P counted along it
T9 sequence (P20138 18-364 T152A limits assumed): as the sequence (P20138 18-364 P189A limits assumed) above, with T135A, A172P counted along it
T20 sequence (P20138 18-364 S186A limits assumed): as the sequence (P20138 18-364 P189A limits assumed) above, with S169A, A172P counted along it
T1 sequence (P20138 18-364 S128A limits assumed): as the sequence (P20138 18-364 P189A limits assumed) above, with S111A, A172P counted along it
human CD33 L92A, sequence (P20138 18-364 L92A limits assumed): as the sequence (P20138 18-364 P189A limits assumed) above, with L75A, A172P counted along it
human CD33 D70A, sequence (P20138 18-364 D70A limits assumed): as the sequence (P20138 18-364 P189A limits assumed) above, with D53A, A172P counted along it
human CD33 G88A, sequence (P20138 18-364 G88A limits assumed): as the sequence (P20138 18-364 P189A limits assumed) above, with G71A, A172P counted along it
T10 sequence (P20138 18-364 E154A limits assumed): as the sequence (P20138 18-364 P189A limits assumed) above, with E137A, A172P counted along it
T4 sequence (P20138 18-364 V136A limits assumed): as the sequence (P20138 18-364 P189A limits assumed) above, with V119A, A172P counted along it

Row | Binder | Mean % WT Binding [1] [% WT binding] | Mean % WT Binding [2] [% WT binding] | Mean % WT Binding [3] [% WT binding] | Mean % WT Binding [4] [% WT binding] | Mean % WT Binding [5] [% WT binding] | Mean % WT Binding [6] [% WT binding] | Mean % WT Binding [7] [% WT binding] | Mean % WT Binding [8] [% WT binding] | Mean % WT Binding [9] [% WT binding] | Mean % WT Binding [10] [% WT binding] | Mean % WT Binding [11] [% WT binding] | Mean % WT Binding [12] [% WT binding] | Mean % WT Binding [13] [% WT binding] | Mean % WT Binding [14] [% WT binding] | Mean % WT Binding [15] [% WT binding] | Mean % WT Binding [16] [% WT binding] | Mean % WT Binding [17] [% WT binding] | Mean % WT Binding [18] [% WT binding] | Mean % WT Binding [19] [% WT binding] | Mean % WT Binding [20] [% WT binding] | other results
1 | B1 | 63 | 92.9 | 80.3 | 92.3 | 78.2 | 94.4 | 105 | 85.3 | 94.2 | 49.3 | 85.1 | 90.9 | 98.4 | 89.7 | 104 |  |  |  |  |  | 
2 | B2 |  |  |  |  |  |  |  |  |  |  |  |  |  |  |  | 127 | 10.8 | 3.6 | 65.8 | 104 | Mean % WT Binding [21]: 89.7 % WT binding; Mean % WT Binding [22]: 116 % WT binding; Mean % WT Binding [23]: 65.4 % WT binding; Mean % WT Binding [24]: 92.7 % WT binding; Mean % WT Binding [25]: 86.2 % WT binding; Mean % WT Binding [26]: 96.3 % WT binding; Mean % WT Binding [27]: 73.9 % WT binding; Mean % WT Binding [28]: 103 % WT binding; Mean % WT Binding [29]: 98.6 % WT binding; Mean % WT Binding [30]: 106 % WT binding; Mean % WT Binding [31]: 48.7 % WT binding; Mean % WT Binding [32]: 97.1 % WT binding; Mean % WT Binding [33]: 92.2 % WT binding; Mean % WT Binding [34]: 94.1 % WT binding; Mean % WT Binding [35]: 110 % WT binding; Mean % WT Binding [36]: 103 % WT binding
3 | B3 | 121 | 136 | 112 | 116 | 91.3 | 158 | 118 | 127 | 134 | 79.1 | 154 | 109 | 125 | 64 | 92.8 |  |  |  |  |  | 
4 | B4 |  |  |  |  |  |  |  |  |  |  |  |  |  |  |  | 283 | 106 | 97.3 | 104 | 71 | Mean % WT Binding [21]: 82.9 % WT binding; Mean % WT Binding [22]: 149 % WT binding; Mean % WT Binding [23]: 77.2 % WT binding; Mean % WT Binding [24]: 137 % WT binding; Mean % WT Binding [25]: 112 % WT binding; Mean % WT Binding [26]: 102 % WT binding; Mean % WT Binding [27]: 62 % WT binding; Mean % WT Binding [28]: 118 % WT binding; Mean % WT Binding [29]: 130 % WT binding; Mean % WT Binding [30]: 85.7 % WT binding; Mean % WT Binding [31]: 57.3 % WT binding; Mean % WT Binding [32]: 118 % WT binding; Mean % WT Binding [33]: 107 % WT binding; Mean % WT Binding [34]: 67.5 % WT binding; Mean % WT Binding [35]: 112 % WT binding; Mean % WT Binding [36]: 115 % WT binding
